Source: the supplement of paper PMC10567573

B1: TRAF3IP2 (parent)
chain: YGHDYPRAAYQQVIQPALPGQPLP

Variants of: B1
Assay: protein stability index of a GFP-peptide fusion (GPS, HEK-293T) (PSI 1-6); higher = more stable
Conditions: c terminus: a fixed tail appended
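Further: lentivirally expressed fusions sorted by FACS into six bins by GFP to DsRed ratio, PSI derived from sequencing read proportions per bin multiplied by bin number.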

Q: For YGHDYPRAAYQQVIQPALPGQPLD [P24D], which protein stability index is on record?
A: The protein stability index was 2.45.

Q: Which protein stability index does the source give for YGHDYPRAAYQQVIQPALPGQPLN [P24N] here?
A: The protein stability index was 2.14.

Q: For YGHDYPRAAYQQVIQPALPGQPLF [P24F], which protein stability index is on record?
A: Its protein stability index is 1.9.

Q: For YGHDYPRAAYQQVIQPALPGQPLW [P24W], which protein stability index is on record?
A: Its protein stability index is 2.3.

Q: Which protein stability index does the source give for YGHDYPRAAYQQVIQPALPGQPLE [P24E] here?
A: The protein stability index was 1.42.

Q: For YGHDYPRAAYQQVIQPALPGQPLR [P24R], which protein stability index is on record?
A: The protein stability index was 1.89.

Q: With YGHDYPRAAYQQVIQPALPGQPLK [P24K] as the variant, how does the protein stability index read?
A: Its protein stability index is 2.47.

Q: For YGHDYPRAAYQQVIQPALPGQPLH [P24H], which protein stability index is on record?
A: Its protein stability index is 1.83.

Q: Which protein stability index does the source give for YGHDYPRAAYQQVIQPALPGQPLT [P24T] here?
A: Its protein stability index is 2.59.

Q: With YGHDYPRAAYQQVIQPALPGQPLM [P24M] as the variant, how does the protein stability index read?
A: The protein stability index was 2.07.

Q: For YGHDYRRAAYQQVIQPALPGQPLP [P6R], which protein stability index is on record?
A: The protein stability index was 1.99.

Q: With YGHDYDRAAYQQVIQPALPGQPLP [P6D] as the variant, how does the protein stability index read?
A: The protein stability index was 3.52.

Q: Which protein stability index does the source give for YGHDQPRAAYQQVIQPALPGQPLP [Y5Q] here?
A: The protein stability index was 3.83.

Q: For YGHDWPRAAYQQVIQPALPGQPLP [Y5W], which protein stability index is on record?
A: The protein stability index was 3.66.

Q: Which protein stability index does the source give for YGHDMPRAAYQQVIQPALPGQPLP [Y5M] here?
A: Its protein stability index is 3.27.

Q: With YGHDTPRAAYQQVIQPALPGQPLP [Y5T] as the variant, how does the protein stability index read?
A: The protein stability index was 3.79.

Q: For YGHDHPRAAYQQVIQPALPGQPLP [Y5H], which protein stability index is on record?
A: The protein stability index was 3.73.

Q: Which protein stability index does the source give for YGHDLPRAAYQQVIQPALPGQPLP [Y5L] here?
A: The protein stability index was 3.58.

Q: With YGHDYPRAAYQQVIQPALPGQSLP [P22S] as the variant, how does the protein stability index read?
A: The protein stability index was 1.8.

Q: With YGHDYPRAAYQQVIQPALPGQMLP [P22M] as the variant, how does the protein stability index read?
A: Its protein stability index is 1.82.

Q: Which protein stability index does the source give for YGHDYPRAAYQQVIQPALPGQTLP [P22T] here?
A: The protein stability index was 2.33.

Q: For YGHDYPRAAYQSVIQPALPGQPLP [Q12S], which protein stability index is on record?
A: The protein stability index was 2.13.

Q: Which protein stability index does the source give for YGHDYPRAAYQHVIQPALPGQPLP [Q12H] here?
A: Its protein stability index is 2.01.

Q: With YGHDYPMAAYQQVIQPALPGQPLP [R7M] as the variant, how does the protein stability index read?
A: Its protein stability index is 2.27.

Q: Which protein stability index does the source give for YGHDYPIAAYQQVIQPALPGQPLP [R7I] here?
A: Its protein stability index is 2.51.

Q: For YGHDYPKAAYQQVIQPALPGQPLP [R7K], which protein stability index is on record?
A: Its protein stability index is 2.18.

Q: For YGHDYPWAAYQQVIQPALPGQPLP [R7W], which protein stability index is on record?
A: The protein stability index was 2.41.

Q: Which protein stability index does the source give for YGHDYPTAAYQQVIQPALPGQPLP [R7T] here?
A: Its protein stability index is 2.6.

Q: For YGHDYPVAAYQQVIQPALPGQPLP [R7V], which protein stability index is on record?
A: The protein stability index was 2.56.

Q: Which protein stability index does the source give for YGHDYPGAAYQQVIQPALPGQPLP [R7G] here?
A: Its protein stability index is 2.58.

Q: Which protein stability index does the source give for YGHSYPRAAYQQVIQPALPGQPLP [D4S] here?
A: The protein stability index was 2.07.

Q: With YGHGYPRAAYQQVIQPALPGQPLP [D4G] as the variant, how does the protein stability index read?
A: Its protein stability index is 2.05.

Q: For YGHIYPRAAYQQVIQPALPGQPLP [D4I], which protein stability index is on record?
A: Its protein stability index is 2.1.

Q: For YGHDYPRACYQQVIQPALPGQPLP [A9C], which protein stability index is on record?
A: Its protein stability index is 2.34.

Q: With YGHDYPRAMYQQVIQPALPGQPLP [A9M] as the variant, how does the protein stability index read?
A: Its protein stability index is 1.98.

Q: For YGHDYPRANYQQVIQPALPGQPLP [A9N], which protein stability index is on record?
A: The protein stability index was 1.73.

Q: For YGHDYPRAAYQQVIQPAGPGQPLP [L18G], which protein stability index is on record?
A: The protein stability index was 2.01.

Q: For YGHDYPRAAYQQVIQPADPGQPLP [L18D], which protein stability index is on record?
A: The protein stability index was 2.17.

Q: For YGHDYPRDAYQQVIQPALPGQPLP [A8D], which protein stability index is on record?
A: Its protein stability index is 2.43.

Q: Which protein stability index does the source give for YGHDYPRRAYQQVIQPALPGQPLP [A8R] here?
A: Its protein stability index is 3.2.

Q: With YGHDYPRLAYQQVIQPALPGQPLP [A8L] as the variant, how does the protein stability index read?
A: Its protein stability index is 2.7.

Q: For YGHDYPRNAYQQVIQPALPGQPLP [A8N], which protein stability index is on record?
A: The protein stability index was 2.3.

Q: For YGHDYPRAAYQQVIQGALPGQPLP [P16G], which protein stability index is on record?
A: Its protein stability index is 1.54.

Q: With YGHDYPRAAYQQVIQKALPGQPLP [P16K] as the variant, how does the protein stability index read?
A: Its protein stability index is 2.48.

Q: Which protein stability index does the source give for YGHDYPRAAYQQVIQLALPGQPLP [P16L] here?
A: Its protein stability index is 1.39.

Q: For YGHDYPRAAYQQVIQTALPGQPLP [P16T], which protein stability index is on record?
A: The protein stability index was 2.27.

Q: With YGHDYPRAAYQQVIQHALPGQPLP [P16H] as the variant, how does the protein stability index read?
A: The protein stability index was 1.57.
